Measurements published in the DeepSol protein solubility set.

Assay: soluble on expression in E. coli; label from the status in PepcDB or PDB records

Row | Sequence | soluble on expression in E. coli
1 | GFRKMAFPSGKVEGCMVQVTCGTTTLNGLWLDDTVYCPRHVICTAEDMLNPNYEDLLIRKSNHSFLVQAGNVQLRVIGHSMQNCLLRLKVDTSNPKTPKYKFVRIQPGQTFSVLACYNGSPSGVYQCAMRPNHTIKGSFLNGSCGSVGFNIDYDCVSFCYMHHMELPTGVHAGTDLEGKFYGPFVDRQTAQAAGTDTTITLNVLAWLYAAVINGDRWFLNRFTTTLNDFNLVAMKYNYEPLTQDHVDILGPLSAQTGIAVLDMCAALKELLQNGMNGRTILGSTILEDEFTPFDVVRQCSGVTHHHHHH | soluble
2 | GFVGRFGASSATTDRSKIFTADFRDFETSFSFQPGVFWGYDDFLSSALLLDIGYNKDKYELKYTVNGGRLLENYDFNSISFGLFPRLNISFVSIGVGGGIKIPLSLKYSKEGDAYSYNKYSLDFGDIKDSFETFYIPYVKVSLDFLIKTKGKFMMSLGVYANYDFPININRNGLLKDISIDKESIAAFDIGFQIGAYLVNR | not soluble
3 | GHMASGSLGELQESQSRLEAATKECQALEGRARAASEQARQLESEREALQQQHSVQVDQLRMQGQSVEAALRMERQAASEEKRKLAQLQVAYHQLFQEYDNHIKSSVVGSERKRGMQLEDLKQQLQQAEE | soluble
4 | GHMKCPVCHQGEMVSGIKDIPYTFRGRKTVLKGIHGLYCVHCEESIMNKEESDAFMAQVKAFRASVNAETVAPEFIVKVRKKLSLTQKEASEIFGGGVNAFSRYEKGNAQPHPSTIKLLRVLDKHPELLNEIR | soluble
5 | GHMLDVAPPVITPRGTKIEPSAGAPFEAVRVARDVLHTSRTAALATLDPVSGYPYTTATNIGIEPDGTPFFFAAGLTLHARNMETDARISVTLAPFGKGDALTLPRLTLVGRADRIGPDEVPLAIARYIARYPKAKLYLSLPDTRLYRLRTEGVQINGGPARNASNITPADLRTDLSGAEELMAAAESEATRLNAIKGEASRLAVLAGAKTGRWKITSIDPDGIDLASASDLARLWFAERVETLKQFEKALAQLLKGS | soluble
6 | GHMSSTPSNQNIIPIIKKESIVSLFEKGIRQDGRKLTDYRPLSITLDYAKKADGSALVKLGTTMVLAGTKLEIDKPYEDTPNQGNLIVNVELLPLAYETFEPGPPDENAIELARVVDRSLRDSKALDLTKLVIEPGKSVWTVWLDVYVLDYGGNVLDACTLASVAALYNTKVYKVEQHSNGISVNKNEVVGKLPLNYPVVTISVAKVDKYLVVDPDLDEESIMDAKISFSYTPDLKIVGIQKSGKGSMSLQDIDQAENTARSTAVKLLEELKKHLGI | soluble
7 | GHMSYSITLRVYQTNRDRGYFSIVEKTVWHFANGGTWSEANGAHTLTMGGSGTSGMLRFMSTKGERITVAVGVHNYKRWCDVVTGLKPDETALVINPQYYNNGGRDYVREKQLAEYSVTSAIGTKVEVVYTVAEGNNLEANVIFS | soluble
8 | GHMTDEDSEANALADPDNPPLSAEQLASAPRMPRIKIIRRALKLTQEEFSARYHIPLGTLRDWEQGRSEPDQPARAYLKIIAVDPEGTAAALRKGATGS | soluble
9 | GIDPFTHMATFISVQLKKTSEVDLAKPLVKFIQQTYPSGGEEQAQYCRAAEELSKLRRAAVGRPLDKHEGALETLLRYYDQICSIEPKFPFSENQICLTFTWKDAFDKGSLFGGSVKLALASLGYEKSCVLFNCAALASQIAAEQNLDNDEGLKIAAKHYQFASGAFLHIKETVLSALSREPTVDISPDTVGTLSLIMLAQAQEVFFLKATRDKMKDAIIAKLANQAADYFGDAFKQCQYKDTLPKEVFPVLAAKHCIMQANAEYHQSILAKQQYYFGEEIARLQHAAELIKTVASRYDEYVNVKDFSDKINRALAAAKKDNDFIYHDRVPDLKDLDPIGKATLVKSTPVNVPISQKFTDLFEKMVPVSVQQSLAAYNQRKADLVNRSIAQMREATTLANGVLASLNLPAAIEDVSGDTVPQSILTKSRSVIEQGGIQTVDQLIKELPELLQRNREILDESLRLLDEEEATDNDLRAKFKERWQRTPSNELYKPLRAEGTNFRTVLDKAVQADGQVKECYQSHRDTIVLLCKPEPELNAAIPSANPAKTMQGSEVVNVLKSLLSNLDEVKKEREGLENDLKSVNFDMTSKFLTALAQDGVINEEALSVTELDRVYGGLTTKVQESLKKQEGLLKNIQVSHQEFSKMKQSNNEANLREEVLKNLATAYDNFVELVANLKEGTKFYNELTEILVRFQNKCSDIVFAR | soluble
